Three molecules from PMC5605434 (Nature chemical biology, 2017) can be followed below.

Usually stoichiometry N stands for a count of units in the complex or per binding partner. A word on the Km: it is the substrate concentration at which the rate is half of its maximum. What is called kcat is the maximal rate divided by the concentration of active sites. In general, kcat/Km refers to the turnover number divided by the Michaelis constant.

Data set [1] deals with TPNOX (triphosphopyridine nucleotide oxidase), quintuple mutant of Lactobacillus brevis H2O-forming NADH oxidase (LbNOX) (Lactobacillus brevis).
The next data set addresses T1, LbNOX (Levilactobacillus brevis, UniProt Q03Q85).
T1 sequence (Q03Q85 1-450): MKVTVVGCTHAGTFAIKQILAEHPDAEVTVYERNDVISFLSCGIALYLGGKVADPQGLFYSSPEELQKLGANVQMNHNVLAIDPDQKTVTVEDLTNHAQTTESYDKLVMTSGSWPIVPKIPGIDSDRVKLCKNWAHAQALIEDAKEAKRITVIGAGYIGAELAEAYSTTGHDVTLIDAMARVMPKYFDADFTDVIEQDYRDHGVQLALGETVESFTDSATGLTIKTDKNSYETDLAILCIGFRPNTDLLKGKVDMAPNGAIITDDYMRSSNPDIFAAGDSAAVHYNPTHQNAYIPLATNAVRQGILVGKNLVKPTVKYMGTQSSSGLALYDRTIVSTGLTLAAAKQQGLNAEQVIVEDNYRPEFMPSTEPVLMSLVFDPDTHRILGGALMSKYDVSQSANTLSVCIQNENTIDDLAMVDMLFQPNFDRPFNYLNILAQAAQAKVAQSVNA
Nature of the data set: X-ray crystal structure. In kind it is binding. The conditions noted are these: NADH-soaked crystal; His-tag not cleaved.

Substrate in the data set “purified protein”: NC(=O)C1=CN([C@@H]2O[C@H](COP(=O)(O)OP(=O)(O)OC[C@H]3O[C@@H](n4cnc5c(N)ncnc54)[C@H](OP(=O)(O)O)[C@@H]3O)[C@@H](O)[C@H]2O)C=CC1
The data set is described as follows: purified protein. The conditions noted are these: 50 mM NaPi, pH 7.5, 150 mM NaCl, 37 °C, O2 as co-substrate.

Consider “TPNOX (triphosphopyridine nucleotide oxidase), quintuple mutant of Lactobacillus brevis H2O-forming NADH oxidase (LbNOX) (enzyme)”, for which the stoichiometry N in data set [1] was 4.
With `Cc1cc2nc3c(=O)[nH]c(=O)nc-3n(C[C@H](O)[C@H](O)[C@H](O)COP(=O)(O)OP(=O)(O)OC[C@H]3O[C@@H](n4cnc5c(N)ncnc54)[C@H](O)[C@@H]3O)c2cc1C` [FAD], the X-ray crystal structure entry on LbNOX was “can the nicotinamide ring of NADH come into proximity of FAD”.

B1: LbNOX (Levilactobacillus brevis ATCC 367) (protein)
chain: T1 sequence (Q03Q85 1-450)
As for B1, in “purified protein”, the Km came to 621 ± 124 µM, the kcat worked out at 0.052 ± 0.001 s⁻¹ and the kcat/Km is 83 ± 16 M⁻¹ s⁻¹.
